Test results reported in the supplement of paper PMC9170038.

System: K4 kissing-loop RNA reporter
Test: apparent KD of K4 kissing-loop reporter; higher = weaker reporter binding
Details: Eterna round: R107
Method: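 RNA-MaP round R107: designed RNA switches with theophylline, tryptophan, arginine or FMN aptamers are transcribed on-chip within common flanks. They are titrated with a labelled K4 kissing-loop RNA reporter in RNA-MaP buffer (100 mM Tris pH 7.5, 80 mM KCl, 4 mM MgCl2), without ligand or with the indicated ligand. Median apparent KD per design.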

[1] = input ligand: theophylline 20 uM
[2] = input ligand: tryptophan 2.4 mM
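Note: bound reporter read as fluorescence of individual clusters on recovered sequencing chips by microscopy, with normalized cluster intensities fitted with a binding model.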

| Sequence | apparent KD of K4 kissing-loop reporter (input ligand: FMN 200 uM) | apparent KD of K4 kissing-loop reporter (input ligand: arginine 13.2 mM) | apparent KD of K4 kissing-loop reporter (input ligand: none) | apparent KD of K4 kissing-loop reporter [1] | apparent KD of K4 kissing-loop reporter [2] |
| --- | --- | --- | --- | --- | --- |
| AGCGGCGCGCUGGAUACCAGUGUCCGACGCGUUAGUAUAGAUCCAAAGUGAUGUUUUGGUCACCCUUGGCAGCCACCUCUGUCGG [theeternabot_exclusion_KL_Theo_B_29] | 237 nM | 192 nM | 245 nM | 257 nM | 195 nM |
| UCCUGCAAUCUGCCACGAAAGUGGAUGGAUACCAGAGUCGAAAGACUCCCUUGGCAGCCAGUGAUGUUGGAAGCAGGUAAAUAAA | 268 nM | 396 nM | 454 nM | 460 nM | 271 nM |
| CAUAGACAAGUGAUGUUUGUCAUAACCGAAGGAGCGUCGUUGAAGACAGGUAGGUCGCGGAUUAAUUAAGAUUAUAUUCUUUUUA [JR_SSArginiA_Sub019] | 605 nM | 485 nM | 634 nM | 624 nM | 505 nM |
| UGCCGCAAGGCGAGCGCUCCCACUCCGGAAGGAGCGCCCGCAAGGGCAGGUAGGUCGCCGGAGUGAUGUUCCGGUGGAGGGCUCG [#2 Exclusion - Arginine A Attempt #25 (Inspired by Omei)] | 201 nM | 188 nM | 174 nM | 164 nM | 157 nM |
| AGAACUGUCUGGGAUACCAGCCGAGGAGUGAUGUUCCGGCUCGACGAAACGUCGAGCUACGGCCCUUGGCAGCUCAGACAGUUCA [#22 K4 Theophylline B Same State] | 1990 nM | 639 nM | 1170 nM | 735 nM | 340 nM |
| AGACUACUGACAGGAUAUAACAUCCUGGUCGUAUACCGAAAGGUAUACGAUUUCCUUCUAGUGAUGUUAGAAGGGUCGGUAGUCA [Omei KL FMN B Exc B v14] | 103 nM | 78 nM | 90.7 nM | 70.3 nM | 82.9 nM |
| GCCGUACGCAUGGAUACCAGCUGCGAAGUGAUGUUUCGGGCGAUCAAAGGAUCGCCCUACAGCCCUUGGCAGCCAUGCGUACGGC | 215 nM | 117 nM | 173 nM | 125 nM | 118 nM |
| GUGAGUGACGGAGGAUAUGCGAUAGAUGUAGGAAAAUUAGUGAUGUUAGUUAUGGUAGAGAUAGAAGUAGAAGGUUGGUGUGUGU [RHig 3/7] | 551 nM | 394 nM | 561 nM | 585 nM | 395 nM |
| CAACGAGUGAUGGUCGUUGACGGCCAUCCCGAGGAUAUGGGAUUAUCCAGAAGGCGGGAUCGCCGGGAGUGAUGUUCCCUGAUCA [Same State FMN A GF 14] | 139 nM | 181 nM | 168 nM | 300 nM | 151 nM |
| AGUGUUGUUUUUUUUAAGAGUGAUGUUUUUCGAGGACCGGUACGGCCGCCACUCGAGUGAUGAGUGAGGUGUGGUGAUGAUUAGU [#10 K4 Tryptophan A Exclusion] | 816 nM | 790 nM | 1050 nM | 664 nM | 337 nM |
| GAGCCAGAGGUUGCUGCGGGUUCCAGAGAUACCAGCCGUAUUGAAGGCCCUUGGCAGCUCGAGUGAUGUUCGAGCCGCCUCUGAC [Isquleorve] | 119 nM | 104 nM | 97.2 nM | 108 nM | 110 nM |
| AAAUGACAAGUAAUAAAGAAAAGCGGCGAUACCAGUAAGAACGUAUACCCUUGGCAGCGCAUAUUAGAGUGAUGUUCUAAUCCGA [theeternabot_sameState_KL_Theo_A_25] | 129 nM | 174 nM | 148 nM | 220 nM | 99.3 nM |
| AGCAUUAUCAGAAGGAGCGUGUAUAAUUCAAGAGAAUUGUUUUCGAGUGAUGUUCGUAAUACACAGGUAGGUCGCUGAUAUAGCA [JR_ExcArginiB_Sub001] | 224 nM | 258 nM | 257 nM | 302 nM | 221 nM |
| CUCGUGGGUUUGAGAGGGCUUGUGGGAAGUGAGGAUAUUUAGGGAGAAAGAAGGCACUAUAGAAUAUAGUGAUGUUAUAUAUGGG [SSFMNA.Q] | 313 nM | 109 nM | 264 nM | 69.3 nM | 256 nM |
| CAUAGGAAACUAUGUUUCUCUCUUACUGAAGGAGCGCGUGAAAACGCAGGUAGGUCGCAGAAUUUGAGAGUGAUGUUCUCAUUAA [Ex Arginine A K4 14] | 119 nM | 211 nM | 175 nM | 201 nM | 127 nM |
| AAUAAAAUCACGGCCGCCACUGAUUAUUUUAUUAGGAGUGAUGUUCCUAUGACAGUAUGCCUUAACAGGACCGGGUGAAUAUUUA [#19 K4 Tryptophan B Exclusion] | 122 nM | 125 nM | 144 nM | 143 nM | 156 nM |

| Sequence | apparent KD of K4 kissing-loop reporter (input ligand: FMN 200 uM) | apparent KD of K4 kissing-loop reporter (input ligand: arginine 13.2 mM) | apparent KD of K4 kissing-loop reporter (input ligand: none) | apparent KD of K4 kissing-loop reporter [1] | apparent KD of K4 kissing-loop reporter [2] |
| --- | --- | --- | --- | --- | --- |
| UCUGUUGUAUAUGAUACCAGCAGUGAGAGACGAGAAGUAUAGUGAUGUUAUAUGAGAGAAUGCCCUUGGCAGCGUGUGCGUGUGG [SSTheophylB.aB] | 111 nM | 110 nM | 95.4 nM | 118 nM | 83.2 nM |
| GAUAGUUAGAGAGAUACCAGCGAUACCUAGAUGGAAAGUGAUGUUCGCCAUCAAUUGCACCGCCCUUGGCAGCUCUCUCUUUGCU [theeternabot_exclusion_KL_Theo_B_37] | 995 nM | 763 nM | 1170 nM | 974 nM | 959 nM |
| GGGAGUAUUGCGGCCGCCACUGAGGAAGAAGAAGGCCAUAGUGAUGUUAUGGAGGAAAGGAAGAACAGGACCGGGCAGUAGAUUU [#22 K4 Tryptophan B Same State] | 154 nM | 157 nM | 175 nM | 188 nM | 127 nM |
| UGAUACCAGACGGCCGCCACUAGACCAGUCAAAGACUGGAUGUGAUGUUUGAGGAGUGAUGUUCCUAGGACCGGGUCUGGUAUCU [TrypBX 4 #Palindromic #SwitchBubble #StaticStem] | 91.3 nM | 76.7 nM | 82.4 nM | 87.6 nM | 28.2 nM |
| CACUCGGUAUCAGAUACCAGACUAUCGAUACCGAGUGUAUCGGGUAGUGAUGUUACCAUAGUCCCUUGGCAGCUGAUAUUGCAUA [Theo B SS t9b] | 73.3 nM | 94.1 nM | 71.7 nM | 87.7 nM | 59.2 nM |
| AGCGACUCGAAAGGGUCGCGGCUAAGGGAUACCAGUGAUGUUGGUCACCCUUGGCAGCCCAGAAGCCAAGCCACCAAAGGUGGCA [Omei KL Theo A Exc A v10] | 124 nM | 99 nM | 119 nM | 114 nM | 116 nM |
| AAGGCAUUCAGAAGGAGCGUGGUUUAAUCAUUAAUAUUUUUUACGAGUGAUGUUCGUAAUUCACAGGUAGGUCGCUGAAUAAUAA [JR_ExcArginiB_Sub008] | 123 nM | 136 nM | 128 nM | 134 nM | 114 nM |
| UUUAUAAUGUCGGCCGCCACUGGAUUAAUAUUUGUAUAAUCUAGUUCAAAGUGAUGUUUUGAGUCCAGGACCGGGACAUUUGUUA [JR_ExcTryptoB_Sub003] | 570 nM | 490 nM | 582 nM | 509 nM | 407 nM |
| UGUGGAGGAUAUGAUACCAGCAGUGAGAGAGAGGAAGUAUAGUGAUGUUAUAUGAGAGAAUGCCCUUGGCAGCGUGUGUAGUGGG [SSTheophylB.K] | 184 nM | 137 nM | 146 nM | 176 nM | 145 nM |
| ACGUCUCGUAAACUCGUGGUUUCGAUCGAUACCAGUAGCGAGAGUUACCCUUGGCAGCGACAUGAGUGAUGUUCAUGUACGAAGA [KL-XTheoA2] | 99.3 nM | 88.5 nM | 93.1 nM | 89.8 nM | 90.3 nM |
| GGCUUACUAGUGAUGUUAGUAUUUUCUGAAGGAGCGCGUGAAAACGCAGGUAGGUCGCAGAACCUUGCCAACUAUUUUAGUUGCC [Ex Arginine A K4 28] | 144 nM | 157 nM | 115 nM | 136 nM | 104 nM |
| AAAAUAAGCCAGUGAUGUUGGUGUCCAGAUACCAGCGACGAAAGUCGCCCUUGGCAGCUGUGGACGUACAAAAUAAGUACGUCCU | 1030 nM | 760 nM | 1140 nM | 957 nM | 1120 nM |
| GUGCAGUGAUGUUGCACGAGGAAAGACGAUACCAGCCGUAAAUAAGGCCCUUGGCAGCGUGGGCUAGCAUAAAGCAUGCUAGUCU [Edbemavela] | 126 nM | 97.7 nM | 113 nM | 111 nM | 99.6 nM |
| GUUACGCAUGGAAGGAGCGCACUCCGAUUGGACGACACAGUGAUGUUGUGGUUCGUUCGAAUGCAGGUAGGUCGCCAUGUGUAAC [Ex Arginine B K4 19] | 159 nM | 148 nM | 150 nM | 134 nM | 148 nM |
| GGUAGCAUGGCGGCCGCCACUAAAACUGGAUCGGAAACGAUCCAGUAAUUUCGAGUGAUGUUCGUUAGGACCGGGCCAUGCUACC | 362 nM | 254 nM | 283 nM | 257 nM | 236 nM |
| GCAGGAUGAGGAGGAGGAUGAAUUACUGAAGGAGCGCAUAUUUUUGCAGGUAGGUCGCGGUAAAGAAGUAUAGUGAUGUUAUAUA [SSArgA.K] | 333 nM | 255 nM | 267 nM | 568 nM | 456 nM |
